# Measured values: IntAct's records for PubMed 16467851
# B1: 1-phosphatidylinositol 4,5-bisphosphate phosphodiesterase gamma-1 (Bos taurus (Bovine)), P08487 (parent)
# chain: MAGAASPCANGCGPSAPSDAEVVHLCRSLEVGTVMTLFYSKKSQRPERKTFQVKLETRQITWSRGADKIEGAIDIREIKEIRPGKTSRDFDRYQEDPAFRPDQSHCFVILYGMEFRLKTLSLQATSEDEVNMWIRGLTWLMEDTLQAATPLQIERWLRKQFYSVDRNREDRISAKDLKNMLSQVNYRVPNMRFLRERLTDLEQRTSDITYGQFAQLYRSLMYSAQKTMDLPFLEASALRAGERPELCRVSLPEFQQFLLEYQGELWAVDRLQVQEFMLSFLRDPLREIEEPYFFLDEFVTFLFSKENSIWNSQLDEVCPDTMNNPLSHYWISSSHNTYLTGDQFSSESSLEAYARCLRMGCRCIELDCWDGPDGMPVIYHGHTLTTKIKFSDVLHTIKEHAFVASEYPVILSIEDHCSIAQQRNMAQYFKKVLGDTLLTKPVDIAADGLPSPNQLKRKILIKHKKLAEGSAYEEVPTSVMYSENDISNSIKNGILYLEDPVNHEWYPHYFVLTSSKIYYSEETSSDQGNEDEEEPKEASGSTELHSNEKWFHGKLGAGRDGRHIAERLLTEYCIETGAPDGSFLVRESETFVGDYTLSFWRNGKVQHCRIHSRQDAGTPKFFLTDNLVFDSLYDLITHYQQVPLRCNEFEMRLSEPVPQTNAHESKEWYHASLTRAQAEHMLMRVPRDGAFLVRKRNEPNSYAISFRAEGKIKHCRVQQEGQTVMLGNSEFDSLVDLISYYEKHPLYRKMKLRYPINEEALEKIGTAEPDYGALYEGRNPGFYVEANPMPTFKCAVKALFDYKAQREDELTFTKSAIIQNVEKQEGGWWRGDYGGKKQLWFPSNYVEEMVSPAALEPEREHLDENSPLGDLLRGVLDVPACQIAVRPEGKNNRLFVFSISMASVAHWSLDVAADSQEELQDWVKKIREVAQTADARLTEGKMMERRKKIALELSELVVYCRPVPFDEEKIGTERACYRDMSSFPETKAEKYVNKAKGKKFLQYNRLQLSRIYPKGQRLDSSNYDPLPMWICGSQLVALNFQTPDKPMQMNQALFLAGGHCGYVLQPSVMRDEAFDPFDKSSLRGLEPCAICIEVLGARHLPKNGRGIVCPFVEIEVAGAEYDSIKQKTEFVVDNGLNPVWPAKPFHFQISNPEFAFLRFVVYEEDMFSDQNFLAQATFPVKGLKTGYRAVPLKNNYSEGLELASLLVKIDVFPAKQENGDLSPFGGASLRERSCDASGPLFHGRAREGSFEARYQQPFEDFRISQEHLADHFDGRDRRTPRRTRVNGDNRL
# partner: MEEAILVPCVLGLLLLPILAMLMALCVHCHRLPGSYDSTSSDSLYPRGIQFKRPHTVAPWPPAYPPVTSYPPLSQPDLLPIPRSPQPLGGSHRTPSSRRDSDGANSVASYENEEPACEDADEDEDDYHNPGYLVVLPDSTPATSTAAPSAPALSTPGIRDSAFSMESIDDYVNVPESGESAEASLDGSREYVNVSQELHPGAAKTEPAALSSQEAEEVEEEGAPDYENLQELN
# B2: 1-phosphatidylinositol 4,5-bisphosphate phosphodiesterase gamma-1 (Bos taurus (Bovine)), P08487 (parent)
# chain: B1 chain
# partner: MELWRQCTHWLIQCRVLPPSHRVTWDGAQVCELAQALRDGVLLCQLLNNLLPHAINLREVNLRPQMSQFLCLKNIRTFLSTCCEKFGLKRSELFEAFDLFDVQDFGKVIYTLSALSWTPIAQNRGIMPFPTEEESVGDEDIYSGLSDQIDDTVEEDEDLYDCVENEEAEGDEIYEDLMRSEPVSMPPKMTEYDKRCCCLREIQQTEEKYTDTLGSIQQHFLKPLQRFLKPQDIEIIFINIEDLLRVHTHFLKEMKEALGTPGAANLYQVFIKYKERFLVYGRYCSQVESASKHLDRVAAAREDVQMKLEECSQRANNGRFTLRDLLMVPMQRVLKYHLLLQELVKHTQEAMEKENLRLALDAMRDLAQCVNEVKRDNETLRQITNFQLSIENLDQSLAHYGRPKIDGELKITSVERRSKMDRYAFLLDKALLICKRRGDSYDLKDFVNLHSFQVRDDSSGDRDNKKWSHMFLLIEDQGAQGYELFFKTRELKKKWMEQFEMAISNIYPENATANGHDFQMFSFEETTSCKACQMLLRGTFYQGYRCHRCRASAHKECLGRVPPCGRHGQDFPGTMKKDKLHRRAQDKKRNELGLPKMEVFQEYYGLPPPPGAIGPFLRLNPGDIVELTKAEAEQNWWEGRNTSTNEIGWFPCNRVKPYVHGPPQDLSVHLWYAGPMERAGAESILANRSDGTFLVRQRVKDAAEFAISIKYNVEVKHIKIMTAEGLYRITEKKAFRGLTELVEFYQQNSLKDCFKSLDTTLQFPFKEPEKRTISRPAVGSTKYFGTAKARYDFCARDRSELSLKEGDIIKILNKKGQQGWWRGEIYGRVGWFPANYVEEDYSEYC
# B3: 1-phosphatidylinositol 4,5-bisphosphate phosphodiesterase gamma-1 (Bos taurus (Bovine)), P08487 (parent)
# chain: B1 chain
# partner: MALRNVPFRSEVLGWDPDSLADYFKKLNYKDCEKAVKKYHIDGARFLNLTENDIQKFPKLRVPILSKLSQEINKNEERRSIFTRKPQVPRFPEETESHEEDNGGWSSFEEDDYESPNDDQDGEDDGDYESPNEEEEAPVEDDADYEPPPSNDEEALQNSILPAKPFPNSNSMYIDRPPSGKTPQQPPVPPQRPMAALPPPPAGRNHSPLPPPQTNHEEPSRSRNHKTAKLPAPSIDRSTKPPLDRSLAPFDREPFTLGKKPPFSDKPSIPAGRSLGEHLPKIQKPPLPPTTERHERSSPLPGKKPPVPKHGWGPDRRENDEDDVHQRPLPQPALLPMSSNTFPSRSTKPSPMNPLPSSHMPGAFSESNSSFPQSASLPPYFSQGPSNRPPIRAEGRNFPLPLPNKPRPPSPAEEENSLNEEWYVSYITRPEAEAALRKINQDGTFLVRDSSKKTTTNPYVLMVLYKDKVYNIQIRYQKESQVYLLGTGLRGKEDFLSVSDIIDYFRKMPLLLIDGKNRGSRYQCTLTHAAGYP
# B4: 1-phosphatidylinositol 4,5-bisphosphate phosphodiesterase gamma-1 (Bos taurus (Bovine)), P08487 (parent)
# chain: B1 chain
# Variants of: B1
# Conditions: with LAT
row,Variant,effect of a mutation on the interaction
1,R586K,disrupting interaction

# Variants of: B1
# Conditions: with LAT
# Remark: another data set of the same source
row,Variant,effect of a mutation on the interaction
1,R696K,disrupting interaction
2,R694K,disrupting interaction
3,P842K,disrupting interaction

# Variants of: B2
# Conditions: with vav_human VAV1, P15498
row,Variant,effect of a mutation on the interaction
1,R694K,disrupting interaction
2,R696K,disrupting interaction

# Variants of: B2
# Conditions: with vav_human VAV1, P15498
# Remark: another data set of the same source
row,Variant,effect of a mutation on the interaction
1,P842K,disrupting interaction

# Variants of: B2
# Conditions: with vav_human VAV1, P15498
# Remark: another data set of the same source
row,Variant,effect of a mutation on the interaction
1,R586K,disrupting interaction

# Variants of: B3
# Conditions: with lcp2_human LCP2, Q13094
row,Variant,effect of a mutation on the interaction
1,R586K,disrupting interaction

# Variants of: B3
# Conditions: with lcp2_human LCP2, Q13094
# Remark: another data set of the same source
row,Variant,effect of a mutation on the interaction
1,R696K,disrupting interaction
2,R694K,disrupting interaction

# Variants of: B3
# Conditions: with lcp2_human LCP2, Q13094
# Remark: another data set of the same source
row,Variant,effect of a mutation on the interaction
1,P842K,disrupting interaction

# Variants of: B4
# Conditions: with cbl_human CBL
row,Variant,effect of a mutation on the interaction
1,P842K,disrupting interaction
